# B1: AB_TL1A_02_004_HL1 (antibody, human IgG1, kappa)
# heavy: QVQLVQSGAEVKKPGASVKVSCKASGYDFTYYGISWVRQAPGQGLEWMGWISPYNGNTHYAQKLQGRVTMTTDTSTRTAYMELRSLRSDDTAVYYCARENYYGSGAYRGGMDVWGQGTTVTVSSASTKGPSVFPLAPSSKSTSGGTAALGCLVKDYFPEPVTVSWNSGALTSGVHTFPAVLQSSGLYSLSSVVTVPSSSLGTQTYICNVNHKPSNTKVDKKVEPKSCDKTHTCPPCPAPEAAGAPSVFLFPPKPKDTLYITREPEVTCVVVDVSHEDPEVKFNWYVDGVEVHNAKTKPREEQYNSTYRVVSVLTVLHQDWLNGKEYKCKVSNKALPAPIEKTISKAKGQPREPQVYTLPPSREEMTKNQVSLTCLVKGFYPSDIAVEWESNGQPENNYKTTPPVLDSDGSFFLYSKLTVDKSRWQQGNVFSCSVMHEALHNHYTQKSLSLSPG
# light: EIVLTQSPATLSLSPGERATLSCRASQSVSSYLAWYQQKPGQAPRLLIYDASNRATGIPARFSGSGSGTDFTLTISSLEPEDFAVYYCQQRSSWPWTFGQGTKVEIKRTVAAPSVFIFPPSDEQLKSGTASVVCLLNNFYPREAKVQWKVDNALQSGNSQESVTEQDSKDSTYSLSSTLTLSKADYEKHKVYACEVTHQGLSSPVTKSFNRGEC
# B2: AB_IL1b_02_003_HL9 (antibody, human IgG4 S228P, kappa, F234A L235A)
# heavy: EVQLVESGGGLVQPGGSLRLSCAASGFTFSDHYMSWIRQAPGKGLEWVSYISSSGSTIYYADSVKGRFTISRDNAKNSLYLQMNSLRAEDTAVYYCAREYDSSGYYYVGVDFWGQGTLVTVSSASTKGPSVFPLAPCSRSTSESTAALGCLVKDYFPEPVTVSWNSGALTSGVHTFPAVLQSSGLYSLSSVVTVPSSSLGTKTYTCNVDHKPSNTKVDKRVESKYGPPCPPCPAPEAAGGPSVFLFPPKPKDTLMISRTPEVTCVVVDVSQEDPEVQFNWYVDGVEVHNAKTKPREEQFNSTYRVVSVLTVLHRDWLNGKEYKCKVSNKGLPSSIEKTISKAKGQPREPQVYTLPPSQEEMTKNQVSLTCLVKGFYPSDIAVEWESNGQPENNYKTTPPVLDSDGSFFLYSRLTVDKSRWQEGNVFSCSVLHEALKFHYTQKSLSLSLG
# light: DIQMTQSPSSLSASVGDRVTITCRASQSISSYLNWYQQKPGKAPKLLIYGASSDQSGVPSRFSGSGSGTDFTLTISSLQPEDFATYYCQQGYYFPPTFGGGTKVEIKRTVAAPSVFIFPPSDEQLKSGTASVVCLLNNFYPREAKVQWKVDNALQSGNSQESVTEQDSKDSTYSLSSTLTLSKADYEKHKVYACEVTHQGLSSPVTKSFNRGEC
# notes: Anti-IL1β antibody with Q311R, M428L, H433K, N434F
# B3: AB_IL13_02_001_HL9 (antibody, human IgG1, kappa, L234A L235A)
# heavy: EVQLQESGPGLVKPSETLSLTCTVSGFSLNAYSVNWIRQPPGKGLEWLGMIWGDGKIVYNSALKSRLTISKDSSKNQVSLKLSSVTAADTAVYYCAGDGYYPYFMDNWGQGTTVTVSSASTKGPSVFPLAPSSKSTSGGTAALGCLVKDYFPEPVTVSWNSGALTSGVHTFPAVLQSSGLYSLSSVVTVPSSSLGTQTYICNVNHKPSNTKVDKKVEPKSCDKTHTCPPCPAPEAAGGPSVFLFPPKPKDTLMISRTPEVTCVVVDVSHEDPEVKFNWYVDGVEVHNAKTKPREEQYNSTYRVVSVLTVLHRDWLNGKEYKCKVSNKALPAPIEKTISKAKGQPREPQVYTLPPSRDELTKNQVSLTCLVKGFYPSDIAVEWESNGQPENNYKTTPPVLDSDGSFFLYSKLTVDKSRWQQGNVFSCSVLHEALKFHYTQKSLSLSPG
# light: DIQLTQSPSSLSASVGDRVTITCRASKSVDSYGNSFMHWYQQKPGKAPKLLIYLASNLESGVPSRFSGSGSGTDFTLTISSLQPEDFATYYCQQNNEDPRTFGGGTKVEIKRTVAAPSVFIFPPSDEQLKSGTASVVCLLNNFYPREAKVQWKVDNALQSGNSQESVTEQDSKDSTYSLSSTLTLSKADYEKHKVYACEVTHQGLSSPVTKSFNRGEC
# B4: AB_IL13_02_004_HL9 (antibody, human IgG1, kappa, L234A L235A)
# heavy: EVQLQESGPGLVKPSETLSLTCTVSGFSLNAYSVNWIRQPPGKGLEWLGMIWGDGKIVYNSALKSRLTISKDSSKNQVSLKLSSVTAADTAVYYCAGDGYYPYAMDGWGQGTTVTVSSASTKGPSVFPLAPSSKSTSGGTAALGCLVKDYFPEPVTVSWNSGALTSGVHTFPAVLQSSGLYSLSSVVTVPSSSLGTQTYICNVNHKPSNTKVDKKVEPKSCDKTHTCPPCPAPEAAGGPSVFLFPPKPKDTLMISRTPEVTCVVVDVSHEDPEVKFNWYVDGVEVHNAKTKPREEQYNSTYRVVSVLTVLHRDWLNGKEYKCKVSNKALPAPIEKTISKAKGQPREPQVYTLPPSRDELTKNQVSLTCLVKGFYPSDIAVEWESNGQPENNYKTTPPVLDSDGSFFLYSKLTVDKSRWQQGNVFSCSVLHEALKFHYTQKSLSLSPG
# light: DIQLTQSPSSLSASVGDRVTITCRASKSVDSYGNSFMHWYQQKPGKAPKLLIYLASNLESGVPSRFSGSGSGTDFTLTISSLQPEDFATYYCQQNNEDPRTFGGGTKVEIKRTVAAPSVFIFPPSDEQLKSGTASVVCLLNNFYPREAKVQWKVDNALQSGNSQESVTEQDSKDSTYSLSSTLTLSKADYEKHKVYACEVTHQGLSSPVTKSFNRGEC
# B5: AB_IL13_TSLP_BsAb_ISTF_003 (bispecific antibody)
# chain 1: EVQLVQSGAEVKKPGSSVKVSCKASGYTFSNYLIEWVRQAPGQGLEWIGVIDPGVGDTNYNENFKGRATLTADKSTSTAYIELSSLRSEDTAVYYCAREDNPGTAFDYWGQGTTVTVSSASTKGPSVFPLAPSSKSTSGGTAALGCLVKDYFPEPVTVSWNSGALTSGVHTFPAVLQSSGLYSLSSVVTVPSSSLGTQTYICNVNHKPSNTKVDKRVEPKSCDKTHTCPPCPAPEAAGGPSVFLFPPKPKDTLMISRTPEVTCVVVDVSHEDPEVKFNWYVDGVEVHNAKTKPREEQYNSTYRVVSVLTVLHQDWLNGKEYKCKVSNKALPAPIEKTISKAKGQPREPQVYTLPPCREEMTKNQVSLWCLVKGFYPSDIAVEWESNGQPENNYKTTPPVLDSDGSFFLYSKLTVDKSRWQQGNVFSCSVLHEALHSHYTQKSLSLSPGK
# chain 2: SIVMTQTPLSLSVTPGQPASISCKASQSVSSDVTWYLQKPGQSPQLLIYYVSEHYTGVPDRFSGSGYGTDFTLKISRVEAEDVGVYYCQQHHRFPLTFGQGTKLEIKRTVAAPSVFIFPPSDEQLKSGTASVVCLLNNFYPREAKVQWKVDNALQSGNSQESVTEQDSKDSTYSLSSTLTLSKADYEKHKVYACEVTHQGLSSPVTKSFNRGEC
# chain 3: DIQLTQSPSSLSASVGDRVTITCRASKSVDSYGNSFMHWYQQKPGKAPKLLIYLASNLESGVPSRFSGSGSGTDFTLTISSLQPEDFATYYCQQNNEDPRTFGCGTKVEIKGGGGSGGGGSGGGGSGGGGSEVQLQESGPGLVKPSETLSLTCTVSGFSLNAYSVNWIRQPPGKCLEWLGMIWGDGKIVYNSALKSRLTISKDSSKNQVSLKLSSVTAADTAVYYCAGDGYYPYAMRNWGQGTTVTVSSEPKSSDKTHTCPPCPAPEAAGGPSVFLFPPKPKDTLMISRTPEVTCVVVDVSHEDPEVKFNWYVDGVEVHNAKTKPREEQYNSTYRVVSVLTVLHQDWLNGKEYKCKVSNKALPAPIEKTISKAKGQPREPQVCTLPPSREEMTKNQVSLSCAVKGFYPSDIAVEWESNGQPENNYKTTPPVLDSDGSFFLVSKLTVDKSRWQQGNVFSCSVLHEALHSHYTQKSLSLSPGK
# B6: AB_IL13_TSLP_BsAb_ISTF_003_HL9 (bispecific antibody, human IgG1, kappa, L234A L235A)
# heavy: EVQLVQSGAEVKKPGSSVKVSCKASGYTFSNYLIEWVRQAPGQGLEWIGVIDPGVGDTNYNENFKGRATLTADKSTSTAYIELSSLRSEDTAVYYCAREDNPGTAFDYWGQGTTVTVSSASTKGPSVFPLAPSSKSTSGGTAALGCLVKDYFPEPVTVSWNSGALTSGVHTFPAVLQSSGLYSLSSVVTVPSSSLGTQTYICNVNHKPSNTKVDKRVEPKSCDKTHTCPPCPAPEAAGGPSVFLFPPKPKDTLMISRTPEVTCVVVDVSHEDPEVKFNWYVDGVEVHNAKTKPREEQYNSTYRVVSVLTVLHRDWLNGKEYKCKVSNKALPAPIEKTISKAKGQPREPQVYTLPPCREEMTKNQVSLWCLVKGFYPSDIAVEWESNGQPENNYKTTPPVLDSDGSFFLYSKLTVDKSRWQQGNVFSCSVLHEALKFHYTQKSLSLSPGK
# light: SIVMTQTPLSLSVTPGQPASISCKASQSVSSDVTWYLQKPGQSPQLLIYYVSEHYTGVPDRFSGSGYGTDFTLKISRVEAEDVGVYYCQQHHRFPLTFGQGTKLEIKRTVAAPSVFIFPPSDEQLKSGTASVVCLLNNFYPREAKVQWKVDNALQSGNSQESVTEQDSKDSTYSLSSTLTLSKADYEKHKVYACEVTHQGLSSPVTKSFNRGEC
# scFv: DIQLTQSPSSLSASVGDRVTITCRASKSVDSYGNSFMHWYQQKPGKAPKLLIYLASNLESGVPSRFSGSGSGTDFTLTISSLQPEDFATYYCQQNNEDPRTFGCGTKVEIKGGGGSGGGGSGGGGSGGGGSEVQLQESGPGLVKPSETLSLTCTVSGFSLNAYSVNWIRQPPGKCLEWLGMIWGDGKIVYNSALKSRLTISKDSSKNQVSLKLSSVTAADTAVYYCAGDGYYPYAMRNWGQGTTVTVSSEPKSSDKTHTCPPCPAPEAAGGPSVFLFPPKPKDTLMISRTPEVTCVVVDVSHEDPEVKFNWYVDGVEVHNAKTKPREEQYNSTYRVVSVLTVLHRDWLNGKEYKCKVSNKALPAPIEKTISKAKGQPREPQVCTLPPSREEMTKNQVSLSCAVKGFYPSDIAVEWESNGQPENNYKTTPPVLDSDGSFFLVSKLTVDKSRWQQGNVFSCSVLHEALKFHYTQKSLSLSPGK
# notes: Anti-TSLP Fab arm (HC + LC) and anti-IL13 scFv-Fc arm
# B7: AB_IL15_AI_02_077_HL9 (antibody, human IgG1, kappa, L234A L235A)
# heavy: EVQLVESGGGLVQPGGSLRLSCAASEFTFSNYAMSWVRQAPGKGLEWVATISRGGDYHYYPDSVKGRFTISRDNSKNTLYLQMNSLRAEDTAVYYCARRVSMITGGWAHDYWGQGTLVTVSSASTKGPSVFPLAPSSKSTSGGTAALGCLVKDYFPEPVTVSWNSGALTSGVHTFPAVLQSSGLYSLSSVVTVPSSSLGTQTYICNVNHKPSNTKVDKRVEPKSCDKTHTCPPCPAPEAAGGPSVFLFPPKPKDTLMISRTPEVTCVVVDVSHEDPEVKFNWYVDGVEVHNAKTKPREEQYNSTYRVVSVLTVLHRDWLNGKEYKCKVSNKALPAPIEKTISKAKGQPREPQVYTLPPSREEMTKNQVSLTCLVKGFYPSDIAVEWESNGQPENNYKTTPPVLDSDGSFFLYSKLTVDKSRWQQGNVFSCSVLHEALKFHYTQKSLSLSPGK
# light: DVVMTQSPLSLPVTLGQPASISCRSSQSIVDITGNTYLEWYQQRPGQSPRLLIYKVFNRFSGVPDRFSGSGSGTDFTLKISRVEAEDVGVYYCFQDSFVPYTFGQGTKLEIKRTVAAPSVFIFPPSDEQLKSGTASVVCLLNNFYPREAKVQWKVDNALQSGNSQESVTEQDSKDSTYSLSSTLTLSKADYEKHKVYACEVTHQGLSSPVTKSFNRGEC
# notes: Anti-IL15 antibody with Q311R, M428L, H433K, N434F
# B8: AB_TL1A_02_004_HL3 (antibody, human IgG1, kappa)
# heavy: QVQLVQSGAEVKKPGASVKVSCKASGYDFTYYGISWVRQAPGQGLEWMGWISPYNGNTHYAQKLQGRVTMTTDTSTRTAYMELRSLRSDDTAVYYCARENYYGSGAYRGGMDVWGQGTTVTVSSASTKGPSVFPLAPSSKSTSGGTAALGCLVKDYFPEPVTVSWNSGALTSGVHTFPAVLQSSGLYSLSSVVTVPSSSLGTQTYICNVNHKPSNTKVDKKVEPKSCDKTHTCPPCPAPEAAGAPSVFLFPPKPKDTLMISRTPEVTCVVVDVSHEDPEVKFNWYVDGVEVHNAKTKPREEQYNSTYRVVSVLTVLHRDWLNGKEYKCKVSNKALPAPIEKTISKAKGQPREPQVYTLPPSREEMTKNQVSLTCLVKGFYPSDIAVEWESNGQPENNYKTTPPVLDSDGSFFLYSKLTVDKSRWQQGNVFSCSVLHEALHNHYTQKSLSLSPG
# light: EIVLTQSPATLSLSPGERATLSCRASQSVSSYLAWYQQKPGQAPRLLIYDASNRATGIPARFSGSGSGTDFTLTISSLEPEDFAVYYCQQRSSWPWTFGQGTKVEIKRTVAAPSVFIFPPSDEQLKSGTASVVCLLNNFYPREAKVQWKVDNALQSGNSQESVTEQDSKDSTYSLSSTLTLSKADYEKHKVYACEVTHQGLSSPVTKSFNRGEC
# notes: built from the name and the HLE mutation column
# Target: T1, human FcRn (human, UniProt P55899 24-297; P61769 21-119)
# T1 construct: also called neonatal Fc receptor
# Assay: SPR, Biacore 8K, CM5 chip, antibody immobilised, human FcRn as analyte, pH 6.0
# Procedure: (§1) The 1×PBST running buffer was prepared at both pH 6.0 and pH 7.4. Kinetic measurements were obtained for association and dissociation times of 60 and 90 seconds, respectively, at a flow rate of 30 μL/min. The CM5 chips were regenerated with 1×PBS (pH 7.4). Kinetic parameters for the concentration series at both pHs were fit to a steady state affinity model and averaged using the Biacore Evaluation Software. Each concentration series was fit independently to obtain the average rates and binding affinities.
# SPR analysis was performed using a Bioacore 8K instrument and a CM5 with the antibody immobilized at 10 g/mL concentration, as above.
# T1 sequence (P55899 24-297 limits assumed, chain 1 of 2): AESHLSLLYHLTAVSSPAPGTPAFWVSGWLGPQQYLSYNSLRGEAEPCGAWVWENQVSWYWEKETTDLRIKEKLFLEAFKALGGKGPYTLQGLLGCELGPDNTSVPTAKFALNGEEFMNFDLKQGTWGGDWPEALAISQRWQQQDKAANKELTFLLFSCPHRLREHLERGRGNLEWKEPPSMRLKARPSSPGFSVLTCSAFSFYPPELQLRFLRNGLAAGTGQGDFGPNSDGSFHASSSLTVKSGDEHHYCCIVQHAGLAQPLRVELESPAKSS
# T1 sequence (P61769 21-119 limits assumed, chain 2 of 2): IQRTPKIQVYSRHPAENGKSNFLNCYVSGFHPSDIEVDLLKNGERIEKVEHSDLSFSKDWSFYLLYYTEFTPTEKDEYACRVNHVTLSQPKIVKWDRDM
Binder,Fold Increase (FI) relative to Rituximab [fold],Kd [nM]
B1,9.8,218
B2,50.4,42.3
B3,47.5,44.8
B4,45.9,46.4
B5,20.7,103
B6,48.5,43.9
B7,38.1,55.9

# Target: T1, human FcRn
# Assay: SPR, Biacore 8K, CM5 chip, antibody immobilised, human FcRn as analyte, pH 6.0, steady-state affinity fit
# Procedure: as §1
Binder,Fold Increase (FI) relative to RVT-3101 [fold],Kd [nM]
B8,5.3,461
